Data as given in patent publication US20210403583A1 (ELIXIRON IMMUNOTHERAPEUTICS HONG KONG, published 2021).
Values belong to the binder of their own block, whether it stands above or below them.

Legend:
[1] = target: T1, recombinant human CSF1R-Fc fusion protein (human, UniProt P07333 20-512); assay: ELISA, coated human CSF1R-Fc
T1 construct: probably the same protein; also called CSF1R-Fc (dimer); not shown: Fc part
Protocol: Materials and methods: Recombinant human CSF1R-Fc, or mouse CSF1R-Fc (Sino Biological) were immobilized on 96 well microtiter plate at a concentration of 1 μg/mL in Coating Solution (SeraCare) overnight at 4° C. The wells were washed with wash solution (0.05% Tween20 in imidazole-buffered saline) and blocked with 1% BSA. Serial dilutions of the anti-CSF1R/IL-10 fusion proteins were added to wells. After incubation at 3TC for 1 h, the wells were washed with wash solution. To detect chimeric Ab/IL10 fusions, peroxidase-conjugated goat anti-human kappa light chain antibody (Bethyl) was applied to each well at 3TC for 1 h incubation. To detect AB98 or AB98/1110 fusions, peroxidase-conjugated Goat anti-mouse IgG Fab antibody (Jackson immunoresearch) was applied to each well at 3TC for 1 h incubation. After washing, the wells were developed with TMB substrate for 5-10 min at RT and then stopped with 1 N HCl. Thereafter absorbance was measured at 450 nm and 650 nm.

[2] = target: T1, recombinant human CSF1R-Fc fusion …; assay: competition ELISA, coated human CSF1R-Fc, competitor biotinylated human CSF1-His 2.5 ug/mL
Protocol: Materials and methods: Recombinant human CSF1R-Fc or mouse CSF1R-Fc (Sino Biological) fusion protein was immobilized on 96 well microtiter plate at a concentration of 1 μg/mL in Coating Solution (SeraCare) overnight at 4° C. The wells were washed with wash solution and blocked with 1% BSA at RT. Serial dilutions of Ab/IL-10 fusion proteins were added to wells. Then 2.5 ug/mL biotinylated human CSF1-His (Biolegend) or mouse CSF1-His (Sino Biological) was added and incubated for 1 h at 37° C. After washing, Streptavidin-HRP (Jackson ImmunoResearch) was applied to wells at RT for 1 h incubation. After washing, the wells were developed with TMB substrate for 5-10 min at RT and the stopped with 1 N HCl. Thereafter absorbance was measured at 450 nm and 650 nm. The IC₅₀ values were calculated through GraphPad Prism7.

[3] = target: T2, recombinant human IL-10Ra fusion protein (R&D Systems) (human, UniProt Q13651 22-235); assay: ELISA, coated human IL-10Ra fusion protein
T2 sequence (looked up): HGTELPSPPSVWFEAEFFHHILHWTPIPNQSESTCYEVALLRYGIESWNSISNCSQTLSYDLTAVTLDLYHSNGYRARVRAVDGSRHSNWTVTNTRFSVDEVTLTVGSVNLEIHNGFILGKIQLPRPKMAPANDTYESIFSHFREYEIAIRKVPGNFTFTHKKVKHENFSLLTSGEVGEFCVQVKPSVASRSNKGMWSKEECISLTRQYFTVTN
Protocol: Materials and methods: Recombinant human IL-10Ra fusion protein (R&D Systems) were immobilized on 96 well microtiter plate at a concentration of 1 μg/ml in Coating Solution (SeraCare) overnight at 4° C. The wells were washed with wash solution (0.05% Tween20 in imidazole-buffered saline) and blocked with 1% BSA. Serial dilutions of Ab/IL-10 fusion proteins were added to wells. After incubation at 37° C. for lhr, the wells were washed with wash solution. Peroxidase-conjugated goat anti-human kappa light chain antibody (Bethyl) was applied to each well at 37° C. for 1 hr incubation. After washing, the wells were developed with TMB substrate for 5-10 min at RT and then stopped with 1 N HCl. Thereafter absorbance was measured at 450 nm and 650 nm. The EC50 value was calculated through GraphPad Prism7.

[4] = target: human CSF1R expressed on cells (293F/huCSF1R stable cells; AML5 cells; human monocytes and macrophages) (human, UniProt P07333 20-972); assay: cell-based or functional assay
[5] = target: T3, cynomolgus CSF1R expressed on 293F cells (cynomolgus monkey, UniProt P07333 20-972 (human entry)); assay: flow cytometry titration on 293F cells overexpressing cynomolgus CSF1R, anti-human IgG-Alexa Fluor 647
T3 construct: also called cynoCSF1R
T3 chain: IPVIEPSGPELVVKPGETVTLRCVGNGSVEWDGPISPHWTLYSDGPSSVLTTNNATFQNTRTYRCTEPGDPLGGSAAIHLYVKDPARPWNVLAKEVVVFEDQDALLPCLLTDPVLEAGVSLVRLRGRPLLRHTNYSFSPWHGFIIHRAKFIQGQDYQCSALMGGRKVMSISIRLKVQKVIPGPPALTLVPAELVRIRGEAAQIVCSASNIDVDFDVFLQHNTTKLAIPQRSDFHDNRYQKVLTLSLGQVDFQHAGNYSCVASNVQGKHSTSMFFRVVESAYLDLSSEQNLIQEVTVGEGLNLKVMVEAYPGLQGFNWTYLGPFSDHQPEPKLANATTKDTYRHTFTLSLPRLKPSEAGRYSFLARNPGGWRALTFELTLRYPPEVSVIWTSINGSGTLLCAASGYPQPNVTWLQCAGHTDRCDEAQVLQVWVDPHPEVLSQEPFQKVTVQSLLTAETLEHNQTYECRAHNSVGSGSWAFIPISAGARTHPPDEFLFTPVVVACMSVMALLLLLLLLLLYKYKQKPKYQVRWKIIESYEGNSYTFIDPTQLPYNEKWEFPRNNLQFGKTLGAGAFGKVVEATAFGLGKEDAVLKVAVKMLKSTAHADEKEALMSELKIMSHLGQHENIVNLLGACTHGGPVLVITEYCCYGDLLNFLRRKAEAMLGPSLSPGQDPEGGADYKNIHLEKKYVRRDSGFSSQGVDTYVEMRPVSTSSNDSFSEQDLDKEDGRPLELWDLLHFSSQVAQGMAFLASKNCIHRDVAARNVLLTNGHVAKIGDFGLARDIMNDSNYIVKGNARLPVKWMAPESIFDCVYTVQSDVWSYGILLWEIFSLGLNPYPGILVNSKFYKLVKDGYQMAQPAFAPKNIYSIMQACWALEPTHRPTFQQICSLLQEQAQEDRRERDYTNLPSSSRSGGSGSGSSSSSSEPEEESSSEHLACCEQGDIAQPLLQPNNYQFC
Description: Materials and methods: The gene segments encoding full-length human CSF1R or cynomolgus CSF1R were obtained using Thermo gene synthesis service and cloned in a mammalian expression vector pCDNA3.4. […] After washing with FACS buffer (2%FBS in PBS), the cells were stained with anti-human IgG-Alexa Fluor 647 and analyzed by Attune N×T Flow Cytometer (Thermo Scientific).

T1 sequence (P07333 20-512 limits assumed): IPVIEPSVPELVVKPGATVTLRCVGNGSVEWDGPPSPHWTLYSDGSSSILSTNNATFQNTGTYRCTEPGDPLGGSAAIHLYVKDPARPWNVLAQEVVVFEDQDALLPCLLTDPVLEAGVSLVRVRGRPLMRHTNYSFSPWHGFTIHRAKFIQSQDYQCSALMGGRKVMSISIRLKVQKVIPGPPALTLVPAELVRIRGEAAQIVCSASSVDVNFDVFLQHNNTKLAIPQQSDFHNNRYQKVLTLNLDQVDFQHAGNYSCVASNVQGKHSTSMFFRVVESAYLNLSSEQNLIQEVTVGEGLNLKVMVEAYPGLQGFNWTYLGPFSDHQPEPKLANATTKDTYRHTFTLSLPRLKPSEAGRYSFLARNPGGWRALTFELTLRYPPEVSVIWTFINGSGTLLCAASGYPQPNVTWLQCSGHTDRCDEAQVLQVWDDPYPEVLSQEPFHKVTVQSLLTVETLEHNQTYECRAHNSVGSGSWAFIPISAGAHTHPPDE

EC50 [1]: 0.479 nM
IC50 [2]: 1.4 nM
EC50 [3]: 2.76 nM
IC50 (M), inhibition of AML5 cell proliferation (CSF1-dependent) [4]: 4.92e-09 M
binding result [5]: binds
B1: chimeric anti-CSF1R/IL10 fusion protein 6D4/IL10 (antibody, human IgG1, kappa)
heavy: not shown
light: DIQMNQSPSSLSASLGDTITITCHASQNINVWLSWYQQKPGNIPKLLIYKASNLHTGVPSRFSGSGSGTGFTLTISSLQPEDIATYYCQQGQSYPYTFGGGTKLEIKRTVAAPSVFIFPPSDEQLKSGTASVVCLLNNFYPREAKVQWKVDNALQSGNSQESVTEQDSKDSTYSLSSTLTLSKADYEKHKVYACEVTHQGLSSPVTKSFNRGEC
notes: Antibody-cytokine fusion: human IL10 fused by a linker to the C-terminus of the heavy chain

EC50 [1]: 0.393 nM
EC50 [3]: 6.08 nM
B2: chimeric anti-CSF1R/IL10 fusion protein 6D4/(IL10)2 (antibody, human IgG1, kappa)
heavy: not shown
light: B1 light
notes: Antibody-cytokine fusion: two human IL10 in tandem fused by linkers to the C-terminus of the heavy chain
